Results as given in publication doi:10.1101/2024.05.17.594671, “Mechanism of TAX1BP1 recruitment in aggrephagy to switch from cargo collection to sequestration” (bioRxiv, 2024).

Experiments:
Details in all cases: both partners purified
[1] = target: T1, 10x-His-mCherry-TAX1BP1 (full length, FL) (UniProt Q86VP1 1-789); assay: microscopy-based protein-protein interaction assay (beads); mCherry-TAX1BP1 FL or ΔN on RFP-trap beads; GFP tagged NBR1 fragment CC2-LIR1 as prey
T1 construct: TAX1BP1, full length (FL); also called mCh-TAX1BP1; mCherry-TAX1BP1 FL; source: Sf9 insect cells (pLIB vector, baculovirus), purified as described previously; not shown: mCherry, N-terminal, kept

[2] = target: T2, GFP-NBR1 (recombinant, purified) (UniProt Q14596 1-966); assay: microscopy-based protein-protein interaction assay (beads); 2.5 µM GST-TAX1BP1 (FL, domain, truncations, point mutants) as bait on GST beads; 1 µM GFP-NBR1 as prey; 25 mM HEPES pH 7.5, 150 mM NaCl, 1 mM DTT; 15-30 min at RT; confocal imaging
T2 construct: NBR1; source: HEK293 (pCAGGSsH-C vector, VBCF ProTech facility), purified as described previously; not shown: GFP, N-terminal, kept
T2 sequence (looked up): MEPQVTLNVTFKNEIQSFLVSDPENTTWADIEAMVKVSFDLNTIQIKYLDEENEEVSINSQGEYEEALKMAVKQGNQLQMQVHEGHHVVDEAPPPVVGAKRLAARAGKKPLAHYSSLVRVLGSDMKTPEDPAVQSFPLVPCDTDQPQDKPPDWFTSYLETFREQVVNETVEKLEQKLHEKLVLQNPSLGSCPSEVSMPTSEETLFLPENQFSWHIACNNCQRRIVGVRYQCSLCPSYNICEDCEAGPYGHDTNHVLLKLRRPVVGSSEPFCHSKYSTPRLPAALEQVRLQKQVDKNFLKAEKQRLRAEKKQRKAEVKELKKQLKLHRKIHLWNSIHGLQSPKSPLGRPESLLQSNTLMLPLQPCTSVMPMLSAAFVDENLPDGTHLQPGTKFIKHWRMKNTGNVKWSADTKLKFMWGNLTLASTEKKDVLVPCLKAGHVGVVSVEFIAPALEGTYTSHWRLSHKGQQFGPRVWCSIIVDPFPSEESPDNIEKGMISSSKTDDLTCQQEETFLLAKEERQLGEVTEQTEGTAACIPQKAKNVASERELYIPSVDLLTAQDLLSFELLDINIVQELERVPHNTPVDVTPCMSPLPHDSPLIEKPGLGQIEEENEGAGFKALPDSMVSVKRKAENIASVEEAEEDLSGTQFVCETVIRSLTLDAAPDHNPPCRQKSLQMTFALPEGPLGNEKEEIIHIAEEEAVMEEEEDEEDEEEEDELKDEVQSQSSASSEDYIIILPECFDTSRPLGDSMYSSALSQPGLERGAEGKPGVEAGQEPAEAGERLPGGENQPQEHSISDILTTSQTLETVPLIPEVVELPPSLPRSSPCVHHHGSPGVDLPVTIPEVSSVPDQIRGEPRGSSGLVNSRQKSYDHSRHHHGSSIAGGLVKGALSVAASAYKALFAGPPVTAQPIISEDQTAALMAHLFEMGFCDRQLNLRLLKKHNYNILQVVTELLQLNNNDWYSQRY

[3] = target: T3, NBR1 (untagged, recombinant) (UniProt Q14596 1-966); assay: in vitro condensation assay (recruitment to p62 condensates, microscopy); 2 µM mCherry-p62 S403E, 1 µM NBR1 (or without NBR1), 2 µM GFP-TAX1BP1 (FL, ΔN or ΔZnF; N domain) in 25 mM HEPES pH 7.5, 150 mM NaCl, 1 mM DTT; condensation triggered with 5 µM GST-4xUB; spinning disk microscopy
T3 construct: NBR1; source: HEK293 (pCAGGSsH-C vector, VBCF ProTech facility), purified as described previously
T3 sequence (looked up): T2 sequence (looked up)

T1 sequence (Q86VP1 whole entry, the tested form may be a part): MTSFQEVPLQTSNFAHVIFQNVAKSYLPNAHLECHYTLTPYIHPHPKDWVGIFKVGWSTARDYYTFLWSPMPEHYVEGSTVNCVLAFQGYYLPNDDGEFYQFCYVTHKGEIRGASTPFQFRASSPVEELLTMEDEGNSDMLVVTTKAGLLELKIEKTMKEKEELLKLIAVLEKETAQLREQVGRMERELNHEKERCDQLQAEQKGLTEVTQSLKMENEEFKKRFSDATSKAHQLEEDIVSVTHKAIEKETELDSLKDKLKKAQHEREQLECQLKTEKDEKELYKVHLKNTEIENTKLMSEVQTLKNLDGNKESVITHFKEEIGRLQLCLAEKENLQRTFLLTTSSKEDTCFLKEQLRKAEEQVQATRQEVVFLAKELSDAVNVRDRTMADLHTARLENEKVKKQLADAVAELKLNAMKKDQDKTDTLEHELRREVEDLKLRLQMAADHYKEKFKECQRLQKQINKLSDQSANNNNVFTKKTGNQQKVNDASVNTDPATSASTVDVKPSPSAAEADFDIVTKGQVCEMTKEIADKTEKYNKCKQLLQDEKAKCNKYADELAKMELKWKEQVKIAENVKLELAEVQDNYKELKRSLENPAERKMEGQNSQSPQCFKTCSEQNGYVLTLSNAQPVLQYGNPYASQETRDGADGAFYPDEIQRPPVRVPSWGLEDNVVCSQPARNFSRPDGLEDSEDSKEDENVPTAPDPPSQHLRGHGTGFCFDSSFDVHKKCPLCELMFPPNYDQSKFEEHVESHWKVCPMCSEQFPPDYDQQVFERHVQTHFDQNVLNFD

B1: GFP-CC2-LIR1 (NBR1 aa685 - aa757) (domain or fragment, UniProt Q14596 685-757, looked up)
chain: LGNEKEEIIHIAEEEAVMEEEEDEEDEEEEDELKDEVQSQSSASSEDYIIILPECFDTSRPLGDSMYSSALSQ
notes: NBR1 fragment CC2-LIR1, aa685-757; The methods name the purified protein GST-GFP-CC2-LIR1 and give elution either by TEV cleavage or by glutathione; also called GST-GFP-CC2-LIR1; GFP tagged NBR1 fragment (CC2-LIR2); source: E. coli Rosetta (pGEX-4T1), purified (GST beads, SEC); not shown: GFP, N-terminal, kept
- binding result [1]: binds

B2: GST-N domain (aa420-506 of TAX1BP1) (domain or fragment, UniProt Q86VP1 420-506, looked up)
chain: DQDKTDTLEHELRREVEDLKLRLQMAADHYKEKFKECQRLQKQINKLSDQSANNNNVFTKKTGNQQKVNDASVNTDPATSASTVDVK
- binding result [2]: binds

B3: GFP-N-domain (aa420-506 of TAX1BP1) (domain or fragment, UniProt Q86VP1 420-506, looked up)
chain: B2 chain
notes: TAX1BP1 N-domain, aa420-506; Cloned into pGEX-4T1; the methods name the purified protein GFP-N domain and give elution either by TEV cleavage or by glutathione; also called N-domain alone; isolated N-domain; source: E. coli Rosetta (pGEX-4T1), purified (GST beads, SEC); not shown: GFP, N-terminal, kept
- binding result [3]: binds
